Test results published in patent publication US11162087B2, “Beta-glucosidase, enzyme composition including same, and method for manufacturing sugar solution using same” (RIKEN, priority 2017, dated 2021).

Key:
[1] = β-glucosidase activity measurement with pNP-Glc; format: biochemical; settings: cell-free extract, volume reduced to one-twelfth by ultrafilter membrane; detection limit 0.075
Protocol: In the present invention, “β-glucosidase” means an enzyme that catalyzes a reaction for hydrolysis degradation of a sugar β-glucoside bond. In the present invention, a method for measuring a β-glucosidase activity utilizes a reaction using p-nitrophenyl-β-D-glucopyranoside (pNP-Glc) as a substrate. Specifically, an enzyme liquid is added to a substrate solution prepared by dissolving pNP-Glc in 50 mM acetic acid-sodium acetate buffer solution (pH 5.0) and reacted at 30° C. for 10 minutes; and the reaction is stopped by well mixing with 2M sodium carbonate in an amount equivalent to one-tenth of a reaction system volume to measure an increase of the absorbance at 405 nm. When p-nitrophenol is released and the absorbance at 405 nm is increased after the above reaction, it is determined that the β-glucosidase activity is present.
10 μL of an enzyme diluted solution was added to and reacted with 90 μL of 50 mM acetic acid buffer containing 1 mM p-nitrophenyl-β-glucopyranoside (manufactured by Sigma-Aldrich Japan) at 30° C. for 10 minutes. Thereafter, 10 μL of 2M sodium carbonate was added and well mixed to stop the reaction, and an increase of absorbance at 405 nm was measured. The activity to release 1 μmol of p-nitrophenol per minute was defined as 1 U. For a blank, 10 μL of 2M sodium carbonate was added to and well mixed with 90 μL of 50 mM sodium acetate buffer containing 1 mM p-nitrophenyl-β-glucopyranoside, and thereafter, 10 μL of an enzyme diluted solution was added to cause a reaction at 30° C. for 30 minutes. Thereafter, an increase of absorbance at 405 nm was measured. At this time, the enzyme liquid was diluted so as not to exceed an absorbance at 405 nm of 1. In addition, a calibration curve was created based on absorbances measured by preparing p-nitrophenol solutions at concentrations of 0.1 mM, 0.2 mM, 1 mM and 2 mM; using 10 μL of them instead of an enzyme diluted solution; and adding and well mixing 10 μL of 2M sodium carbonate for color development.

[2] = Inhibitory action of glucose on the β-glucosidase activity; format: biochemical; settings: 1 mM pNP-Glc, 30° C., 100 minutes
Text: The β-glucosidase derived from a protist of the genus Pseudotrichonympha of the present invention is preferably less likely to suffer from inhibition by glucose on the 3-glucosidase activity. Specifically, when the β-glucosidase activity in the absence of glucose is taken unity, the β-glucosidase activity under a condition of a glucose concentration of 8 g/L (or in the presence of 8 g/L glucose) is preferably 0.5 or more, more preferably 0.6 or more, more preferably 0.7 or more, more preferably 0.8 or more, more preferably 0.9 or more, more preferably 1.0 or more, more preferably 1.1 or more, more preferably 1.2 or more, more preferably 1.3 or more, and in particular preferably 1.4 or more. Further, in addition to the β-glucosidase activity under the condition of the glucose concentration of 8 g/L, when the β-glucosidase activity in the absence of glucose is taken as unity, the β-glucosidase activity under a condition of a glucose concentration of 20 g/L (or in the presence of 20 g/L glucose) is preferably 0.5 or more, more preferably 0.6 or more, and in particular preferably 0.7 or more. The method used herein for measuring the β-glucosidase activity is the same as the above-described method except that 8 g/L or 20 g/L of glucose is added at the time of measuring; and results obtained thereby are used.
An enzyme solution was added to a mixture solution containing 1 mM p-nitrophenyl-β-glucopyranoside (manufactured by Sigma-Aldrich Japan), 50 mM acetic acid buffer and 0, 4, 8 or 20 g/L glucose such that the total amount of the reaction solution became 100 μL, causing a reaction at 30° C. for 100 minutes. Thereafter, 10 μL of 2M sodium carbonate was added and well mixed to stop the reaction, and an increase of absorbance at 405 nm was measured. The activity to release 1 μmol of p-nitrophenol per minute was defined as 1 U. For a blank, 10 μL of 2M sodium carbonate was added to an amount, equivalent to that of the above mixture solution for the reaction solution before addition of the enzyme solution, of a mixture solution containing 1 mM p-nitrophenyl-β-glucopyranoside, 50 mM sodium acetate buffer and 0, 4, 8 or 20 g/L glucose, and mixed well; and then, the enzyme solution was added such that the total solution amount of the blank became 110 μL, causing a reaction at 30° C. for 30 minutes. Thereafter, an increase of absorbance at 405 nm was measured.
In accordance with Reference Example 8, the inhibitory action of glucose on the β-glucosidase activity was measured in enzyme compositions: containing the β-glucosidase and the genus Trichoderma filamentous fungus-derived cellulase prepared in Example 10; and the cell-free extract of β-glucosidase mutant gene transformed E. coli prepared in Example 5. For a comparative control, only the genus Trichoderma filamentous fungus-derived cellulase was used, and the inhibitory action of glucose on the β-glucosidase activity was measured in the same manner. […] That is, both of the enzyme composition containing the β-glucosidase of the present invention and the genus Trichoderma filamentous fungus-derived cellulase, and the cell-free extract of β-glucosidase mutant gene transformed E. coli were less likely to suffer from inhibition on the β-glucosidase activity by glucose, compared to only the genus Trichoderma filamentous fungus-derived cellulase, and the enzyme composition of Comparative Example 1 containing the genus Aspergillus filamentous fungus-derived β-glucosidase and the genus Trichoderma filamentous fungus-derived cellulase.

B1: Mutant 2: His-tagged polypeptide of SEQ ID NO: 8, 80% identity with SEQ ID NO: 1; tested as cell-free extract of transformed E. coli (protein)
chain: QIEGLINVMTLEEKVGQMAQLAIDLFIDVPTDTVIPEAARKGIIDYKIGSILNTYGGVSHSKEVWTYINAEFYKYTEETDLKIPILYGLDSIHGANFVNNFTSFPQQIGMAATFNPSLLKEGSRISAYETRAASVGWVFSPVMDLGLDPRWPRIWEGFGEDPYLSSQFGIASVHGFQGKDPNLIDEFHVAACAKHYLAYSNPFTGKDRTPAILSDIFIREYHLPSFKAAVDAGVASVMVNSGLINGIPTHMNHYLLTTVLKEELGFQGVIVTDWQDIENIHTRDHLAPTQKDAVKLAINAGIDMSMIPYNYDFIDYLIELVHEGEVSIDRINDAVRRILKMKAKMNLWDLPVTKSEDYPEFGSEAHANASYTAASESITLLKNENSTLPLAKNTKVLVVGPNSNSHRSLNGGWSYSWQGNAGVQYAVQYNTIYQAIQKVNGEENTVFSQGVRYIETGNYYEDEEVNISESVALARDVDYIILALGENTYTEKPGDLSDLEISQNQIDLAKALASTGKPIILVLNQGRPRIISRIEQLVSAILWIYWPGNYGGDALADILFGDVNPSGKLPVTYPRYSASL
modifications: His tag; amino acid sequence having 80% sequence identity with amino acid sequence of SEQ ID NO 1
notes: tested as cell-free extract of transformed E. coli
- Increase of absorbance (405 nm) [1]: 0.365
- BGL activity (relative value) in the presence of 8 g/L glucose when BGL activity in the absence of glucose is taken as unity ([2]; 8 g/L glucose): 0.74
- BGL activity (relative value) in the presence of 20 g/L glucose when BGL activity in the absence of glucose is taken as unity ([2]; 20 g/L glucose): 0.72
